From article PMC1952073, “The N-Myc Down Regulated Gene1 (NDRG1) Is a Rab4a Effector Involved in Vesicular Recycling of E-Cadherin” (PLoS ONE, 2007)

Target: T1, recombinant flag-tagged NDRG1 purified from Drosophila S2 cells (human, UniProt Q92597-1 1-394)
T1 construct: NDRG1; The vector pMT/BiP/V5-His adds a BiP secretion signal (the protein was collected as secreted protein); also called NDRG1flag; NDRG1Flag; not shown: Flag, C-terminal, kept
Assay: pull-down; NDRG1Flag bound to M2 agarose; 1 microgram of purified Rab4aGST loaded with 10 µM GTPγS (30 min, 37 °C) in 20 mM HEPES, 1 mM MgCl2, 1 mM DTT, 100 mM potassium acetate, incubated 1 h; Western blot
Conditions: both partners purified

T1 sequence (Q92597 whole entry): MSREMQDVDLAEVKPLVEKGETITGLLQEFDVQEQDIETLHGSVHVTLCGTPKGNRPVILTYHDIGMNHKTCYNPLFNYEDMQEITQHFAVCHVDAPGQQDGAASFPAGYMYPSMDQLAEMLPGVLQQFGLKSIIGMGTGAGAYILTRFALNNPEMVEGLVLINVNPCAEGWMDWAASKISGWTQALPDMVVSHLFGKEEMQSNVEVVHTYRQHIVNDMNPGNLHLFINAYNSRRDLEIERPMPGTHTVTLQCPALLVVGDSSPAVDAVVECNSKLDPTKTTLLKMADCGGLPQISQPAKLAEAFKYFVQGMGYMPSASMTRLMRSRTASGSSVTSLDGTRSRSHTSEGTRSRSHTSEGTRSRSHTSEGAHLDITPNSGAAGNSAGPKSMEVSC

binding result: binds
B1: Rab4a produced as a GST fusion protein (natural protein, UniProt P20338 1-218, looked up)
chain: MSQTAMSETYDFLFKFLVIGNAGTGKSCLLHQFIEKKFKDDSNHTIGVEFGSKIINVGGKYVKLQIWDTAGQERFRSVTRSYYRGAAGALLVYDITSRETYNALTNWLTDARMLASQNIVIILCGNKKDLDADREVTFLEASRFAQENELMFLETSALTGENVEEAFVQCARKILNKIESGELDPERMGSGIQYGDAALRQLRSPRRAQAPNAQECGC
notes: Rab4a amplified from a prostate cDNA library and cloned in PGEX2T; also called Rab4aGST; recombinant Rab4a; source: E. coli BL21 (DE3), purified (glutathione agarose)
